{
  "source": "paper PMC6224603",
  "about": "“Membrane association and remodeling by intraflagellar transport protein IFT172” (Nature Communications, 2018)",
  "binders": {"B1": {"name": "Chlamydomonas IFT57 (intraflagellar transport protein 57), full-length (natural protein, UniProt Q2XQY7 1-469, looked up)", "chain": "MSSKRGGRSSLAKAPEEAVNGEAFAPEASPPPPGDDGDAGGEDGGAPAPPPPPATKGGPVAVGRSLEIQTTPDVCMEMLADKLKLLNYEADFCRKKKPYRKPLSRLYFAVPLANSSEQFFYFTSLATWLLGLAGVELPAPKEFDDPNLTCQNILGAVKKLGFAPPSYHPTKLTVGNGKEVVGVLDGLVDFVLERRHHKYSRPAYGNDGQPEEGVQLDDEAEAAAMEGADELAMPAQNQADDDEEEEGVYVDPGRGDAAGPGTGASAAMDAEKAVLVSKVDPTLWKIELERVAPKLRITIAADSKDWRSHLDEAHQHKEVISKAWPDSKTSLERLRADLNGTLEKLQTREKFLNEQFESLMQQYRAARTTFTDVQETYNRKTEAVADRNQEMHRIGETLEEVKAMMDEKGSNIADATPVARIKTAIKQLNKELHDMEVRIGVVSHTLLQLSLRNKRLLQAQAALSDEEED", "notes": "IFT57 from Chlamydomonas, full length, cloned into the pEC vector; source: E. coli BL21 (DE3), purified (Ni-NTA, TEV cleavage, HiTrapQ-Sepharose, SEC); not shown: His tag, N-terminal, cleaved"}},
  "target": "T1, Chlamydomonas IFT172 (intraflagellar transport protein 172), recombinant full-length, C-terminal His-tag (Chlamydomonas reinhardtii, UniProt Q5DM57 1-1755)",
  "T1 construct": "Gene synthesised or sub-cloned into MCS2 of the pFL vector; no removal of the His-tag is described; The detergent-free monomer was used in the liposome sedimentation assays; also called IFT172-His tag; IFT172 monomer; source: HighFive insect cells (baculovirus), purified (His60 Ni Resin, SEC on Superose 6; with 0.1% DDM for the monomer, or with HiTrapQ-Sepharose anion exchange for the …)",
  "T1 sequence (Q5DM57 whole entry)": "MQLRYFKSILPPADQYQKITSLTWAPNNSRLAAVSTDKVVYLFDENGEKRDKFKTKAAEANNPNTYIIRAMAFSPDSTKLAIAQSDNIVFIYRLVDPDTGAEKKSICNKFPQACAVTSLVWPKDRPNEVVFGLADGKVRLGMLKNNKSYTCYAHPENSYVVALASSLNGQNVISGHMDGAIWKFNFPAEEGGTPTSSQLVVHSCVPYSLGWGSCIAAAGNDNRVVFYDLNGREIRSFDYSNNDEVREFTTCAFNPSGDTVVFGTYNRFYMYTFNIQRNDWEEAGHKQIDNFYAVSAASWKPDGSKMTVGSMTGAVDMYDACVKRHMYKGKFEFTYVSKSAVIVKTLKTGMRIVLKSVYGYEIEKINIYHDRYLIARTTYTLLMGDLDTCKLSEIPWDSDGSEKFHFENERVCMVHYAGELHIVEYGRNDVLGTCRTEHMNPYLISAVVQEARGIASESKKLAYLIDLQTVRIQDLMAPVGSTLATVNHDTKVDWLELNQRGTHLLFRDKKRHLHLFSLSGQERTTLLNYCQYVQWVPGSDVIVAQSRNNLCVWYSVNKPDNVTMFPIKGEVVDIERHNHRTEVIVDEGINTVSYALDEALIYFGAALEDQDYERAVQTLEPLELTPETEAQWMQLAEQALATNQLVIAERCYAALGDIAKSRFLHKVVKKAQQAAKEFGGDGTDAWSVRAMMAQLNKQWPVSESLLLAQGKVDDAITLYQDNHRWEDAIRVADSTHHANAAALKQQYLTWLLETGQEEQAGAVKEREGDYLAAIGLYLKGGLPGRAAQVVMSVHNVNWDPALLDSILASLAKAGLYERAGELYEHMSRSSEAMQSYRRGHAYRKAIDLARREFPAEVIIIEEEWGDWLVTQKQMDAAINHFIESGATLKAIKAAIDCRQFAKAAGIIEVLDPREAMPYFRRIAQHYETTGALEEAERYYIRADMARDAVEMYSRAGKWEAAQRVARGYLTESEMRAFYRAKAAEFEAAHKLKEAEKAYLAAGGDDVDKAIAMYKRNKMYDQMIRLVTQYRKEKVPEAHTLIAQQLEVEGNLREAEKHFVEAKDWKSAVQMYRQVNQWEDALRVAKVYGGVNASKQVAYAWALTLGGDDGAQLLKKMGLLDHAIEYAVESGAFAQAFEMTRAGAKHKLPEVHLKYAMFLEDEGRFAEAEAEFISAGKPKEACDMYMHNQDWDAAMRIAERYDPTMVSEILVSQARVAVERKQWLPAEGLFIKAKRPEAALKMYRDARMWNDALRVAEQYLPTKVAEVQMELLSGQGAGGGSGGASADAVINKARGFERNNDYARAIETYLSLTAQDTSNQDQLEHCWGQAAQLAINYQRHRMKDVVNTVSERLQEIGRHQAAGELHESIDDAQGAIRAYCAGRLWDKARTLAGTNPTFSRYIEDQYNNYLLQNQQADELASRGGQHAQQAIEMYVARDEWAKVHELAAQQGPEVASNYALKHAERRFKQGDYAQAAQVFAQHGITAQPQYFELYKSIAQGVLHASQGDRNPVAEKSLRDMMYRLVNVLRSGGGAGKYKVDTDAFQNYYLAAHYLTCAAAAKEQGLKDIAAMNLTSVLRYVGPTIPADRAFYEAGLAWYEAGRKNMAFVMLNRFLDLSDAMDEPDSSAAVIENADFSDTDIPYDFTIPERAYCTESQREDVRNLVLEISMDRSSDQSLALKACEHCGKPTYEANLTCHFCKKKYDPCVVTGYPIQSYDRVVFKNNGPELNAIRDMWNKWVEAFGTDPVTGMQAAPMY",
  "test": "co-sedimentation; liposome co-sedimentation: IFT172 with Folch fraction I MLV and rising amounts of IFT57; 20 mM Hepes, 150 mM NaCl, pH 7.5, 15 min on ice, 135,000 xg for 20 min, supernatant and pellet by SDS-PAGE; binding of IFT57 to IFT172 is read from the loss of IFT172 from the liposome pellet",
  "settings": "both partners purified",
  "data": [
    {"binder": "B1", "values": [
      {"measurement": "binding result", "result": "binds"}
    ]}
  ]
}
